For this assay, the target named is human CNTN4 expressed on the cell surface (human) (UniProt Q8IWV2). Kind of assay: flow cytometry; IgG on human CNTN4-overexpressing HEK293 cells.
Chain of human CNTN4 expressed on the cell surface (human) (Q8IWV2 19-1000): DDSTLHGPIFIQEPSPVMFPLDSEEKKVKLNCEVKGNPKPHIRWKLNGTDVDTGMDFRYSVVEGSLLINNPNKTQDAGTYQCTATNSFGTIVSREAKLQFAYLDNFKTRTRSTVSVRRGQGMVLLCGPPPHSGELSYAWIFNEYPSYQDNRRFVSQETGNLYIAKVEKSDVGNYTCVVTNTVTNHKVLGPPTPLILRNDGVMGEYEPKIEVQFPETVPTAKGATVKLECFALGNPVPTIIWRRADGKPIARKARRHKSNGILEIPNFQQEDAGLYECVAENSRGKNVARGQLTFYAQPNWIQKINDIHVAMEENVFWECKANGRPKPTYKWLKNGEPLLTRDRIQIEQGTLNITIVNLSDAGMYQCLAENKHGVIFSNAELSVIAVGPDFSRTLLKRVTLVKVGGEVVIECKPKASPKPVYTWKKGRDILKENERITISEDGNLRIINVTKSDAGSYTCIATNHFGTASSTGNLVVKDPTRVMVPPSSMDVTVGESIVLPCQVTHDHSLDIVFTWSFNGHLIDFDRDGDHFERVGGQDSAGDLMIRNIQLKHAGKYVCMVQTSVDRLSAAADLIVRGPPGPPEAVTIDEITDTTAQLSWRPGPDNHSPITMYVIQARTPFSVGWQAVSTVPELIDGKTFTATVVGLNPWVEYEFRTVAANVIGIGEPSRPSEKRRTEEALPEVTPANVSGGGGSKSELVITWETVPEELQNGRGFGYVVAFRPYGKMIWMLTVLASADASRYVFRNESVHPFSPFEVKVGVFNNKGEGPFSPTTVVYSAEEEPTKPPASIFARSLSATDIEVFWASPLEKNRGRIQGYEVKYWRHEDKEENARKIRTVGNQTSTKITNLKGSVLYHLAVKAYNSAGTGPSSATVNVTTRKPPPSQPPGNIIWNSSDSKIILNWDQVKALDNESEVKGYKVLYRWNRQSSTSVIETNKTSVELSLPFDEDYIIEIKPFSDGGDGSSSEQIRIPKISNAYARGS

For human IgG4 antibody (negative control), the Top MFI is 13 MFI.

The record behind these values is patent EP4667491A1.
